Test [1] addresses AcrIIC2Nme (purified, pHAT4 construct with N-terminal 6-His tag) (not stated (suffix Nme; its cognate Cas9 is from N. meningitidis)). As to the kind of experiment: crystal structure; AcrIIC2Nme alone; Se-SAD; 2.5 Å.
Test [2] addresses Nme1Cas9 (purified, full length) (N. meningitidis).
Test [3] has the same target. The experiment in a line: ITC; 100 μM AcrIIC2Nme titrated into 10 μM Nme1Cas9; 20 °C; 300 mM NaCl, 20 mM Tris pH 7.5; One Set of Sites model. Background: Isothermal titration calorimetry measures the heat released or taken up as one component is titrated into another.
Test [4] has as its target AcrIIC2Nme (purified, pET28a-Sumo construct) (not stated (suffix Nme; its cognate Cas9 is from N. meningitidis)). The experiment in a line: crystal structure; Nme1Cas9 and AcrIIC2Nme mixed 1:10, complex purified by gel filtration; hanging drop, 16 °C; Nme1Cas9 digested during crystallization; 2.6 Å.

For “AcrIIC2Nme (purified, pHAT4 construct with N-terminal 6-His tag) (natural protein)”, the stoichiometry N in test [1] was 2.

“AcrIIC2Nme (purified, pET28a-Sumo construct) (natural protein)” registered an in vitro DNA cleavage by Nme1Cas9; sgRNA and AcrIIC2Nme added simultaneously; excess of AcrIIC2Nme needed to block cleavage in test [2] of over 10 fold excess. Besides, in test [3], the Kd is 200 nM. This substance yielded a stoichiometry N in test [4] of 2.

As usually defined, the stoichiometry N is the number of molecules, sites or subunits per partner or assembly. As a reminder, the Kd is the equilibrium constant for the complex coming apart.

These data come from paper PMC6594998.
